Measurements as given in the supplement of paper PMC9112550, “Optimization of the antimicrobial peptide Bac7 by deep mutational scanning” (BMC Biology, 2022).

Each sequence was assayed on Escherichia coli TOP10 (assay: shrunken log2 fold change of peptide-encoding DNA abundance (4.5 h post-induction vs induction); higher = less antimicrobial activity (less host growth inhibition)). Conditions: time post-induction: 4.5 h; library: site-saturation at positions 5, 18, 19, 20.
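Note: peptides expressed intracellularly from a pBAD plasmid library in pooled LB shake-flask culture, induced with 0.3% L-arabinose, DNA abundance read by NGS, three biological replicates, DESeq2 with apeglm shrinkage.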

| Sequence | shrunken log2 fold change |
| --- | --- |
| RRIRLRPPRLPRPRPRPLEFPRP | -0.252 |
| RRIRCRPPRLPRPRPRPYIAPRP | -0.762 |
| RRIRARPPRLPRPRPRPISYPRP | -0.545 |
| RRIRIRPPRLPRPRPRPYFNPRP | -1.29 |
| RRIRERPPRLPRPRPRPYFAPRP | -0.373 |
| RRIRARPPRLPRPRPRPMDCPRP | 0.181 |
| RRIRMRPPRLPRPRPRPQWSPRP | 0.0117 |
| RRIRMRPPRLPRPRPRPEWWPRP | -0.00783 |
| RRIRYRPPRLPRPRPRPYKAPRP | 0.019 |
| RRIRYRPPRLPRPRPRPNVFPRP | 0.0662 |
| RRIRCRPPRLPRPRPRPGPMPRP | 0.326 |
| RRIRERPPRLPRPRPRPPQMPRP | 0.208 |
| RRIRWRPPRLPRPRPRPVSPPRP | 0.175 |
| RRIRARPPRLPRPRPRPMIAPRP | 0.263 |
| RRIRQRPPRLPRPRPRPHPGPRP | 0.125 |
| RRIRQRPPRLPRPRPRPFIIPRP | 0.043 |
| RRIRSRPPRLPRPRPRPCWWPRP | 0.159 |
| RRIRVRPPRLPRPRPRPVVDPRP | -0.0784 |
| RRIRARPPRLPRPRPRPIKAPRP | 0.105 |
| RRIRLRPPRLPRPRPRPLSFPRP | -0.15 |
| RRIRWRPPRLPRPRPRPFQMPRP | -0.692 |
| RRIRRRPPRLPRPRPRPKSSPRP | -0.00897 |
| RRIRPRPPRLPRPRPRPMISPRP | -0.098 |
| RRIRYRPPRLPRPRPRPRDDPRP | -0.241 |
| RRIRVRPPRLPRPRPRPYVQPRP | -0.918 |

| Sequence | shrunken log2 fold change |
| --- | --- |
| RRIRERPPRLPRPRPRPFHEPRP | -0.0823 |
| RRIRCRPPRLPRPRPRPTAHPRP | 0.181 |
| RRIRRRPPRLPRPRPRPTFIPRP | -0.0768 |
| RRIRVRPPRLPRPRPRPIDDPRP | -0.14 |
| RRIRIRPPRLPRPRPRPWNHPRP | 0.0112 |
| RRIRWRPPRLPRPRPRPWHRPRP | -0.0473 |
| RRIRERPPRLPRPRPRPNHNPRP | -0.418 |
| RRIRARPPRLPRPRPRPYTGPRP | -0.645 |
| RRIRNRPPRLPRPRPRPRLVPRP | 0.114 |
| RRIRLRPPRLPRPRPRPLNVPRP | 0.0831 |
| RRIRQRPPRLPRPRPRPDDWPRP | 0.0952 |
| RRIRPRPPRLPRPRPRPVQKPRP | 0.0644 |
| RRIRVRPPRLPRPRPRPYCNPRP | -0.501 |
| RRIRVRPPRLPRPRPRPLMFPRP | -0.449 |
| RRIRNRPPRLPRPRPRPRREPRP | 0.38 |
| RRIRVRPPRLPRPRPRPFLRPRP | -0.563 |
| RRIRDRPPRLPRPRPRPYHAPRP | -0.0316 |
| RRIRKRPPRLPRPRPRPPGCPRP | 0.955 |
| RRIRCRPPRLPRPRPRPITRPRP | -0.429 |
| RRIRPRPPRLPRPRPRPCDCPRP | 0.0287 |
| RRIRQRPPRLPRPRPRPCFVPRP | -0.0859 |
| RRIRWRPPRLPRPRPRPLKRPRP | 0.612 |
| RRIRARPPRLPRPRPRPPKKPRP | 0.342 |
| RRIRKRPPRLPRPRPRPHAKPRP | 0.226 |
| RRIRSRPPRLPRPRPRPGNRPRP | -0.00644 |

| Sequence | shrunken log2 fold change |
| --- | --- |
| RRIRGRPPRLPRPRPRPWFAPRP | 0.0421 |
| RRIRNRPPRLPRPRPRPCCLPRP | -0.219 |
| RRIRQRPPRLPRPRPRPMFSPRP | 0.0442 |
| RRIRMRPPRLPRPRPRPTGWPRP | 0.687 |
| RRIRLRPPRLPRPRPRPQPCPRP | -0.215 |
| RRIRKRPPRLPRPRPRPYCLPRP | -0.17 |
| RRIRERPPRLPRPRPRPVGNPRP | -0.191 |
| RRIRCRPPRLPRPRPRPKDRPRP | -0.0193 |
| RRIRWRPPRLPRPRPRPIFIPRP | -0.592 |
| RRIRFRPPRLPRPRPRPEGCPRP | 0.013 |
| RRIRVRPPRLPRPRPRPRSMPRP | -0.123 |
| RRIRDRPPRLPRPRPRPDKLPRP | -0.0536 |
| RRIRIRPPRLPRPRPRPNAYPRP | -0.243 |
| RRIRSRPPRLPRPRPRPKYFPRP | -0.146 |
| RRIRPRPPRLPRPRPRPQDGPRP | 0.0623 |
| RRIRRRPPRLPRPRPRPDWRPRP | 0.36 |
| RRIRARPPRLPRPRPRPSWAPRP | 0.106 |
| RRIRWRPPRLPRPRPRPHCMPRP | 0.0179 |
| RRIRIRPPRLPRPRPRPAGGPRP | 0.3 |
| RRIRSRPPRLPRPRPRPNIRPRP | 0.0389 |
| RRIRCRPPRLPRPRPRPVATPRP | 0.443 |
| RRIRERPPRLPRPRPRPDLPPRP | -0.156 |
| RRIRARPPRLPRPRPRPAAYPRP | 0.412 |
| RRIRNRPPRLPRPRPRPFEFPRP | -0.0681 |
| RRIRCRPPRLPRPRPRPPDGPRP | -0.0323 |

| Sequence | shrunken log2 fold change |
| --- | --- |
| RRIRLRPPRLPRPRPRPFHCPRP | -0.0953 |
| RRIRMRPPRLPRPRPRPRMLPRP | 0.465 |
| RRIRVRPPRLPRPRPRPKIKPRP | -0.303 |
| RRIRLRPPRLPRPRPRPCQCPRP | -0.672 |
| RRIRKRPPRLPRPRPRPYHKPRP | 0.0411 |
| RRIRSRPPRLPRPRPRPDIYPRP | -0.194 |
| RRIRGRPPRLPRPRPRPTTVPRP | 0.368 |
| RRIRQRPPRLPRPRPRPDRPPRP | 0.00639 |
| RRIRGRPPRLPRPRPRPHSWPRP | 0.417 |
| RRIRMRPPRLPRPRPRPDGFPRP | 0.0516 |
| RRIRIRPPRLPRPRPRPQVCPRP | 0.0108 |
| RRIRHRPPRLPRPRPRPHCVPRP | -0.01 |
| RRIRKRPPRLPRPRPRPNIVPRP | 0.135 |
| RRIRSRPPRLPRPRPRPKISPRP | 0.0778 |
| RRIRFRPPRLPRPRPRPGLEPRP | -0.0646 |
| RRIRPRPPRLPRPRPRPIRAPRP | -0.106 |
| RRIRQRPPRLPRPRPRPELGPRP | 0.0387 |
| RRIRDRPPRLPRPRPRPKPGPRP | 0.654 |
| RRIRMRPPRLPRPRPRPHKAPRP | 0.000331 |
| RRIRFRPPRLPRPRPRPGCDPRP | 0.106 |
| RRIRLRPPRLPRPRPRPYLWPRP | -0.0439 |
| RRIRERPPRLPRPRPRPIGSPRP | -0.587 |
| RRIRHRPPRLPRPRPRPGNYPRP | 0.113 |
| RRIRPRPPRLPRPRPRPNLMPRP | -0.0727 |
| RRIRARPPRLPRPRPRPVAHPRP | 0.159 |

| Sequence | shrunken log2 fold change |
| --- | --- |
| RRIRQRPPRLPRPRPRPDTHPRP | -0.347 |
| RRIRGRPPRLPRPRPRPWGLPRP | 0.0474 |
| RRIRPRPPRLPRPRPRPCENPRP | -0.0133 |
| RRIRMRPPRLPRPRPRPATSPRP | 0.654 |
| RRIRCRPPRLPRPRPRPIMCPRP | 0.0272 |
| RRIRLRPPRLPRPRPRPGDVPRP | 0.0737 |
| RRIRMRPPRLPRPRPRPQLNPRP | 0.158 |
| RRIRVRPPRLPRPRPRPWIEPRP | -0.104 |
| RRIRHRPPRLPRPRPRPHSGPRP | -0.487 |
| RRIRHRPPRLPRPRPRPHHWPRP | -0.156 |
| RRIRHRPPRLPRPRPRPFFIPRP | -0.393 |
| RRIRMRPPRLPRPRPRPRKNPRP | 0.433 |
| RRIRWRPPRLPRPRPRPAHMPRP | 0.0152 |
| RRIRMRPPRLPRPRPRPPNFPRP | 0.35 |
| RRIRTRPPRLPRPRPRPFTSPRP | -0.0603 |
| RRIRKRPPRLPRPRPRPLNIPRP | -0.0957 |
| RRIRGRPPRLPRPRPRPVWAPRP | 0.591 |
| RRIRTRPPRLPRPRPRPVHTPRP | 0.243 |
| RRIRRRPPRLPRPRPRPGKLPRP | 0.0788 |
| RRIRSRPPRLPRPRPRPWDYPRP | 0.0318 |
| RRIRNRPPRLPRPRPRPDIWPRP | -0.394 |
| RRIRKRPPRLPRPRPRPNMFPRP | -0.155 |
| RRIRTRPPRLPRPRPRPCMQPRP | 1.86 |
| RRIRERPPRLPRPRPRPWQGPRP | 0.0776 |
| RRIRGRPPRLPRPRPRPYQVPRP | 0.174 |

| Sequence | shrunken log2 fold change |
| --- | --- |
| RRIRCRPPRLPRPRPRPPPFPRP | 2.05 |
| RRIRCRPPRLPRPRPRPERSPRP | 0.0846 |
| RRIRRRPPRLPRPRPRPIKFPRP | -0.202 |
| RRIRWRPPRLPRPRPRPSDCPRP | -0.183 |
| RRIRVRPPRLPRPRPRPHDHPRP | -0.244 |
| RRIRSRPPRLPRPRPRPWEMPRP | -0.00146 |
| RRIRWRPPRLPRPRPRPYWYPRP | -1.33 |
| RRIRRRPPRLPRPRPRPTKGPRP | 0.244 |
| RRIRIRPPRLPRPRPRPDRIPRP | 0.0297 |
| RRIRQRPPRLPRPRPRPCNHPRP | 0.037 |
| RRIRCRPPRLPRPRPRPYGDPRP | -0.217 |
| RRIRWRPPRLPRPRPRPPFNPRP | 0.31 |
| RRIRVRPPRLPRPRPRPVNRPRP | -0.142 |
| RRIRVRPPRLPRPRPRPQDAPRP | -0.443 |
| RRIRLRPPRLPRPRPRPMGLPRP | 0.0182 |
| RRIRDRPPRLPRPRPRPMHHPRP | -0.146 |
| RRIRHRPPRLPRPRPRPSDLPRP | -0.441 |
| RRIRSRPPRLPRPRPRPPHVPRP | 0.113 |
| RRIRHRPPRLPRPRPRPFSHPRP | -0.254 |
| RRIRGRPPRLPRPRPRPVKYPRP | 0.235 |
| RRIRARPPRLPRPRPRPQFNPRP | -0.0606 |
| RRIRFRPPRLPRPRPRPCVQPRP | -0.182 |
| RRIRARPPRLPRPRPRPFHFPRP | -0.25 |
| RRIRQRPPRLPRPRPRPYMVPRP | -0.176 |
| RRIRARPPRLPRPRPRPCSWPRP | 0.0664 |
